Measurements as given in publication PMC6757106, “Prokaryotic soluble overexpression and purification of oncostatin M using a fusion approach and genetically engineered E. coli strains” (Scientific Reports, 2019).

What was measured:
[1] = molecular target: the molecule itself; test: non-reducing SDS-PAGE; final purified tag-free OSM run on 10% tricine SDS-PAGE under reducing and non-reducing conditions, Coomassie stained
[2] = molecular target: the molecule itself; test: SEC; HiLoad 16/600 Superdex 75 pg, 1x PBS pH 7.4, 1 mL/min; final proteins after tag cleavage

Row | Protein | binding result [1] | binding result [2]
1 | Human Oncostatin M (OSM), tag-free, purified from the MBP-OSM fusion expressed in BL21(DE3) (ligand, UniProt P13725 26-221, looked up, Oncostatin M, human; Tag removed with TEV protease at ENLYFQ/G; surmised); Printed size 22.05 kDa; also called MBP fusion-derived OSM; OSM purified from MBP-OSM; source: E. coli BL21(DE3), 18 °C, purified (IMAC, TEV protease cleavage, second IMAC); not shown: His6, N-terminal, cleaved; MBP, N-terminal, cleaved) AAIGSCSKEYRVLLGQLQKQTDLMQDTSRLLDPYIRIQGLDVPKLREHCRERPGAFPSEETLRGLGRRGFLQTLNATLGCVLHRLADLEQRLPKAQDLERSGLNIEDLEKLQMARPNILGLRNNIYCMAQLLDNSDTAEPTKAGRGASQPPTPTPASDAFQRKLEGCRFLHGYHRFMHSVGRVFSKWGESPNRSRR | binds | –
2 | Human Oncostatin M (OSM), tag-free, purified from the His6-OSM fusion expressed in Origami 2 (ligand, UniProt P13725 26-221, looked up, Oncostatin M, human; Tag removed with TEV protease at ENLYFQ/G; a glycine probably stays at the N-terminus (surmised from the cysteine numbering); Printed size 22.05 kDa; also called His6 fusion-derived OSM; OSM purified from His-OSM; source: E. coli Origami 2(DE3), 18 °C, purified (IMAC with 2 M urea, TEV protease cleavage, second IMAC); not shown: His6, N-terminal, cleaved) AAIGSCSKEYRVLLGQLQKQTDLMQDTSRLLDPYIRIQGLDVPKLREHCRERPGAFPSEETLRGLGRRGFLQTLNATLGCVLHRLADLEQRLPKAQDLERSGLNIEDLEKLQMARPNILGLRNNIYCMAQLLDNSDTAEPTKAGRGASQPPTPTPASDAFQRKLEGCRFLHGYHRFMHSVGRVFSKWGESPNRSRR | – | binds
